In article PMC9670026:

Assays:
[1] = target: Human IgG1, monomer fraction (human); assay: SEC-MALS; SEC-MALS-RI-UV on Superdex 200 Increase 10/300 GL, 1 mL/min, 100 uL injected, room temperature; 0.45 mg/mL total IgG; aggregate fraction of the IgG1 batch
Protein A [2] = target: Protein A (UniProt P38507); assay: LSPR (localized surface plasmon resonance) biosensor; Protein A immobilised by EDC/NHS on the gold-nanostructure sensor chip; IgG 0.45 mg/mL in running buffer, 1 mL injected at 1 mL/min, one injection (n = 1); running buffer PBS pH 7.4; room temperature; Langmuir 1:1 fit; apparent affinity
Protein A [3] = target: Protein A (UniProt P38507); assay: LSPR (localized surface plasmon resonance) biosensor; Protein A immobilised by EDC/NHS on the gold-nanostructure sensor chip; IgG 0.45 mg/mL in running buffer, 1 mL injected at 1 mL/min, one injection (n = 1); running buffer 10 mM citrate, 150 mM NaCl, pH 3.5; room temperature; Langmuir 1:1 fit; apparent affinity
Protein A [4] = target: Protein A (UniProt P38507); assay: LSPR (localized surface plasmon resonance) biosensor; Protein A immobilised by EDC/NHS on the gold-nanostructure sensor chip; IgG 0.45 mg/mL in running buffer, 1 mL injected at 1 mL/min, one injection (n = 1); running buffer 10 mM citrate, 150 mM NaCl, pH 3.8; room temperature; Langmuir 1:1 fit; apparent affinity
Protein A [5] = target: Protein A (UniProt P38507); assay: LSPR (localized surface plasmon resonance) biosensor; Protein A immobilised by EDC/NHS on the gold-nanostructure sensor chip; IgG 0.45 mg/mL in running buffer, 1 mL injected at 1 mL/min, one injection (n = 1); running buffer 10 mM citrate, 150 mM NaCl, pH 4.0; room temperature; Langmuir 1:1 fit; apparent affinity
[6] = target: Human IgG1 monoclonal antibody, aggregate fraction (mainly dimers) (UniProt P01857); assay: LSPR (localized surface plasmon resonance) fiber-optical nanoplasmonic biosensor, ArgusEye AB; conditions: room temperature under ambient conditions, pH 7.4: 140 mM sodium chloride, 2.7 mM potassium chloride, 10 mM phosphate, pH 4.0, 3.8 and 3.5: 150 mM NaCl with 10 mM citrate, pH 7.4: PBS (10 mM phosphate), pH 4.0, 3.8 and 3.5: 10 mM citrate (Methods and Results text). The Figure 3 caption state
[7] = target: Human IgG1 monoclonal antibody, monomer fraction (UniProt P01857); assay: as above; conditions: room temperature under ambient conditions, pH 7.4: 140 mM sodium chloride, 2.7 mM potassium chloride, 10 mM phosphate, pH 4.0, 3.8 and 3.5: 150 mM NaCl with 10 mM citrate, pH 7.4: PBS (10 mM phosphate), pH 4.0, 3.8 and 3.5: 10 mM citrate (Methods and Results text). The Figure 3 caption state

## Human IgG1, monomer fraction (antibody)
[1]
  stoichiometry N: 2
Protein A [2]
  Kd: 1.3 nM
  koff: 2.9e-05 s⁻¹
  kon: 22000 M⁻¹ s⁻¹
Protein A [3]
  Kd: 660 nM
  koff: 0.011 s⁻¹
  kon: 17000 M⁻¹ s⁻¹
Protein A [4]
  Kd: 330 nM
  koff: 0.01 s⁻¹
  kon: 30000 M⁻¹ s⁻¹
Protein A [5]
  Kd: 130 nM
  koff: 0.004 s⁻¹
  kon: 31000 M⁻¹ s⁻¹

## Protein A (staphylococcal protein A, SpA)
[6]; pH 3.5
  koff: 0.0099 s⁻¹
  kon: 28000 M⁻¹ s⁻¹
[6]; pH 3.8
  koff: 0.0024 s⁻¹
  kon: 36000 M⁻¹ s⁻¹
[6]; pH 4.0
  koff: 0.00092 s⁻¹
  kon: 36000 M⁻¹ s⁻¹
[6]; pH 7.4
  koff: 2.9e-05 s⁻¹
  kon: 25000 M⁻¹ s⁻¹
[7]; pH 3.5
  koff: 0.011 s⁻¹
  kon: 17000 M⁻¹ s⁻¹
[7]; pH 3.8
  koff: 0.01 s⁻¹
  kon: 30000 M⁻¹ s⁻¹
[7]; pH 4.0
  koff: 0.004 s⁻¹
  kon: 31000 M⁻¹ s⁻¹
[7]; pH 7.4
  koff: 2.9e-05 s⁻¹
  kon: 22000 M⁻¹ s⁻¹

## Human IgG1, aggregate fraction (antibody)
Protein A [2]
  Kd: 1.2 nM
  koff: 2.9e-05 s⁻¹
  kon: 25000 M⁻¹ s⁻¹
Protein A [3]
  Kd: 350 nM
  koff: 0.0099 s⁻¹
  kon: 28000 M⁻¹ s⁻¹
Protein A [4]
  Kd: 65 nM
  koff: 0.0024 s⁻¹
  kon: 36000 M⁻¹ s⁻¹
Protein A [5]
  Kd: 26 nM
  koff: 0.00092 s⁻¹
  kon: 36000 M⁻¹ s⁻¹
